Experiment [1] concerns the target T1, PSMA (UniProt Q04609 1-750, limits assumed).
T1 construct: whole, on cells; also called PSMA in LNCaP cell lysate; PSMA on LNCaP cells
As to the kind of experiment: indirect ELISA on coated LNCaP cell lysate.
Source text: Briefly, LNCaP cell lysates were coated in a 96-well plate and 5% BSA was used as blocking agent. […] The interaction between ProCA32 variants and PSMA in cell lysates was quantified by ELISA using HRP-conjugated goat-anti-rabbit secondary antibody and one step ELISA kit.

In a further experiment the target is collagen type I (mouse, UniProt P11087 152-1207; Q01149 86-1125). As to the kind of experiment: cell-based or functional assay.
Experiment [2] has as its target T1, PSMA. Put plainly: assay not given; presumably the ELISA on LNCaP cell lysate of FIG. 10. On the technique in general: An ELISA detects its analyte on a solid surface through an enzyme-linked reagent.
The next experiment has as its target T2, CXCR4 (UniProt P61073 1-352, limits assumed).
T2 construct: whole, on cells; also called chemokine receptor type 4; CXCR4 on Mel290 cells
As to the kind of experiment: binding to CXCR4 positive cells (FIGS. 47A-47B).

T1 sequence (Q04609 whole entry): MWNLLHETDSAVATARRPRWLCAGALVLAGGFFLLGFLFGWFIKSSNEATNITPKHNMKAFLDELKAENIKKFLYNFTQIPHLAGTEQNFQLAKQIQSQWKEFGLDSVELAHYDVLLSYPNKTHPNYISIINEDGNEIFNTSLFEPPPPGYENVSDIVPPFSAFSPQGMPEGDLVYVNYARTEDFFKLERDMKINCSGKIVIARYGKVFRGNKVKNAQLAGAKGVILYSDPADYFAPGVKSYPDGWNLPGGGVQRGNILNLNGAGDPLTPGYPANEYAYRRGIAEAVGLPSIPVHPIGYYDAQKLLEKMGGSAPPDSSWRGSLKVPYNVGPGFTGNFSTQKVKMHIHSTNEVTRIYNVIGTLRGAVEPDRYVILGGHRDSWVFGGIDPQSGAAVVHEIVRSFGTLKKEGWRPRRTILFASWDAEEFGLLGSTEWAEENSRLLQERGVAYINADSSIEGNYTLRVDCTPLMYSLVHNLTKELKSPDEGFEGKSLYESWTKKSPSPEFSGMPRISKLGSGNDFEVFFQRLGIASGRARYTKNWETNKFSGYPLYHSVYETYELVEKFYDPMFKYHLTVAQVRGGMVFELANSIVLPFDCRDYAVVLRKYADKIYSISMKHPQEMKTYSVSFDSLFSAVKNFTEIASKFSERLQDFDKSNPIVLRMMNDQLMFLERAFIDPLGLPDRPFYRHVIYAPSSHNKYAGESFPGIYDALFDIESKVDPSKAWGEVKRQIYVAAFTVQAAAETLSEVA
T2 sequence (P61073 whole entry): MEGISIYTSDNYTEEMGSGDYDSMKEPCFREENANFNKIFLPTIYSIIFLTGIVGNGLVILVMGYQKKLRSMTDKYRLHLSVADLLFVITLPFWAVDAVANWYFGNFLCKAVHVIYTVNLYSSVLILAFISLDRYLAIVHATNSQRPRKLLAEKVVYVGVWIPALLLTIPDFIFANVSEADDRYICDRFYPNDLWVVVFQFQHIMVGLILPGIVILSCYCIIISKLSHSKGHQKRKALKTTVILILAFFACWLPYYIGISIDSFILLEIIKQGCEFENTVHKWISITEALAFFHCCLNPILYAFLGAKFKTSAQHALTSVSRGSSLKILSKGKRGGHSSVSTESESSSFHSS
Chain of collagen type I (P11087 152-1207, chain 1 of 2): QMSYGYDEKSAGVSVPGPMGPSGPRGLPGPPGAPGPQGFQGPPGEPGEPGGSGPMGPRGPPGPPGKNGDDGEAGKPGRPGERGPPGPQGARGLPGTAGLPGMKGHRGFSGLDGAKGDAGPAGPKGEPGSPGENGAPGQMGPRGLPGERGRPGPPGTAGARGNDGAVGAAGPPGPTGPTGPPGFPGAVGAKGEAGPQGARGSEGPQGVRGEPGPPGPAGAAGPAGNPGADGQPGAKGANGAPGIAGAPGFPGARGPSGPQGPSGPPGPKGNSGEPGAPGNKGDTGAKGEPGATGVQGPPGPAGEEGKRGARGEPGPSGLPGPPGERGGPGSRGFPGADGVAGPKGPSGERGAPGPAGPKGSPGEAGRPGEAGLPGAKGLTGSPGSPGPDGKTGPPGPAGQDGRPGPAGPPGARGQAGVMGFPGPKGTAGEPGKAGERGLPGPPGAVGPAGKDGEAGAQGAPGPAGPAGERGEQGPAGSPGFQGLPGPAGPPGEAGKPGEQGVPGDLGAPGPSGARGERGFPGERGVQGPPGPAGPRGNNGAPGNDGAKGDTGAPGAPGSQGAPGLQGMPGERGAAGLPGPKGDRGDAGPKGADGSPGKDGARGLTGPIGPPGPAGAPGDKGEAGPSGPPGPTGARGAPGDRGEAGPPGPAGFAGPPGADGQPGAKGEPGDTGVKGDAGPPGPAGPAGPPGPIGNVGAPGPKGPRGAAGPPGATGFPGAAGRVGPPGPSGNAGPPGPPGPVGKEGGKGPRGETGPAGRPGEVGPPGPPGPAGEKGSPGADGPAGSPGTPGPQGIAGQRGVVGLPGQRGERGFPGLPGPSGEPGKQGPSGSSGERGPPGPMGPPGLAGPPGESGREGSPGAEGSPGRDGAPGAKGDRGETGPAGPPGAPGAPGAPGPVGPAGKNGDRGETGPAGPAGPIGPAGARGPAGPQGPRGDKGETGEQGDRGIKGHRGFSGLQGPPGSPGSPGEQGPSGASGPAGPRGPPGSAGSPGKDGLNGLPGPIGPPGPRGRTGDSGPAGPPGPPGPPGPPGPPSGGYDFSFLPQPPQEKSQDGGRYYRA
Chain of collagen type I (Q01149 86-1125, chain 2 of 2): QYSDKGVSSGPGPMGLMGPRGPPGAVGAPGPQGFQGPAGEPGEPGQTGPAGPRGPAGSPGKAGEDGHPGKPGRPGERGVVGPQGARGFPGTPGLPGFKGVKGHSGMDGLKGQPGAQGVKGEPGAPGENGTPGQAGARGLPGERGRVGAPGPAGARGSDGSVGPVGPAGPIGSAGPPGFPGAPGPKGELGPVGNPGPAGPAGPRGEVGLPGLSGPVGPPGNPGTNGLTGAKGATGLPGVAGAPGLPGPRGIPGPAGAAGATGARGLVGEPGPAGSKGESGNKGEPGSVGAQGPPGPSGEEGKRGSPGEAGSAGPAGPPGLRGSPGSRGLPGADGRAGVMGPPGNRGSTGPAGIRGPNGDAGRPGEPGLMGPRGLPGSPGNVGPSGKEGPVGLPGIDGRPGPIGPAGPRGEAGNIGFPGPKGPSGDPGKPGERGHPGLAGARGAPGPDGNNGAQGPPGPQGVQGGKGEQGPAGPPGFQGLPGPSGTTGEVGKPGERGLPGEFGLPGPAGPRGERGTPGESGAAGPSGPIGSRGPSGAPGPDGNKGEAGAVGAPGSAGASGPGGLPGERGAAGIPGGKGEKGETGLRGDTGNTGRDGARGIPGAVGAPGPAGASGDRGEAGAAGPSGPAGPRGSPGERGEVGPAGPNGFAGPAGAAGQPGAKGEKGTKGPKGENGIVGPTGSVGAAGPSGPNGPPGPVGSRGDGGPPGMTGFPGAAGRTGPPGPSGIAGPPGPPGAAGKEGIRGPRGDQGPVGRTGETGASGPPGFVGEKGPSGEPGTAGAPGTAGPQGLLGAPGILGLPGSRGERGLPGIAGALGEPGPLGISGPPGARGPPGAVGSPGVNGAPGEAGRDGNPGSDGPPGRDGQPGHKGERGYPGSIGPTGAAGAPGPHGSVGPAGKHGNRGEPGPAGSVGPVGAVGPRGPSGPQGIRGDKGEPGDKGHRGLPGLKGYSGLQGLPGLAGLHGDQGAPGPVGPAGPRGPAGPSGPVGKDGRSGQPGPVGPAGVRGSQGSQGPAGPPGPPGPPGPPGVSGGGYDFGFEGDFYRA

B1: ProCA32 (other)
chain: SMTDLLNAEDIKKAVGAFSATDSFDHKKFFQMVGLKKKSADDVKKVFHMLDKDKDGFIEEDELGFILKGFSPDARDLSAKETKMLMAAGDKDGDGKIGVEEWSTLVAES
notes: Control without a targeting moiety; also called non-targeted ProCA32; ProCA32 itself without targeting moiety
Consider B1, for which the binding result in the experiment with PSMA [1] was “no binding”.

B2: rat ProCA32.collagen (designed binder)
chain: MSMTDLLSAEDIKKAIGAFTAADSFDHKKFFQMVGLKKKSADDVKKVFHILDKDKDGFIEEDELGSILKGFSSDARDLSAKETKTLMAAGDKDGDGKIGVEEWSTLVAESGGGKKWHCYTYFPHHYCVYG
modifications: Used as a contrast agent loaded with Gd3+; the metal ions are not carried by the letters.
In the case of B2, the “Gd^3+ injection dosage per gram of tissue in fibrotic liver, against rProCA32” value with collagen type I is roughly 2 fold.

B3: ProCA32.564.PSMA (designed binder, not shown: small tags and cut ends)
chain: MSMTDLLNAEDIKKAVGAFSATDSFDHKKFFQMVGLKKKSADDVKKVFHMLDKDKDGFIEEDELGFILKGFSPDARDLSAKETKMLMAAGDKDGDGKIGVEEWSTLVAESLSFFSCWLRRSFSLT
notes: Fluorescein-labelled in the anisotropy assays, unlabelled in the ELISA
For the molecule B3, in the experiment with PSMA [2], the EC50 (commonly the concentration needed to bring the measured effect to its halfway point) came to 520 nM.

B4: ProCA32.V1.CXCR4 (designed binder)
chain: MSMTDLLNAEDIKKAVGAFSATDSFDHKKFFQMVGLKKKSADDVKKVFHMLDKDKDGFIEEDELGFILKGFSPDARDLSAKETKMLMAAGDKDGDGKIGVEEWSTLVAESLGASWHRPDKCCLGYQKRPLP
notes: also called ProCA32.CXCR4
In the case of B4, binding in the experiment with CXCR4 was characterised by a dissociation constant (Kd) of 1840 nM.

Source of the values: US20260216379A1 (GEORGIA STATE UNIVERSITY RESEARCH FOUNDATION, published 2026).
